Results on two molecules are retold here after PMC2654182 (Biochemistry, 2008).

T1: BARD1 (423-777) (human, UniProt Q99728 423-777)
T1 sequence (looked up): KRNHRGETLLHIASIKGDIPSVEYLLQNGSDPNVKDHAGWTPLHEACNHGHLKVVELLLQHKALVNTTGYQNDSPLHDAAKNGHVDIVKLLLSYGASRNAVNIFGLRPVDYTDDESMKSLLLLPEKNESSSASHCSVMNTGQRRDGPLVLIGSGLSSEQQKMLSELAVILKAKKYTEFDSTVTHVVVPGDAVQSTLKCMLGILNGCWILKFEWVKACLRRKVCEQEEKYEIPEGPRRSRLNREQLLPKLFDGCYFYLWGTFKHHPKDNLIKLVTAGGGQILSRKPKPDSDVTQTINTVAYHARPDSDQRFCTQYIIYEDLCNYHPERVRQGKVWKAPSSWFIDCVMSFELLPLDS

B1: GST-CstF-50 (92-431) (domain or fragment, human, UniProt Q05048 92-431, looked up)
chain: MSPEASEYETCYVTSHKGPCRVATYSRDGQLIATGSADASIKILDTERMLAKSAMPIEVMMNETAQQNMENHPVIRTLYDHVDEVTCLAFHPTEQILASGSRDYTLKLFDYSKPSAKRAFKYIQEAEMLRSISFHPSGDFILVGTQHPTLRLYDINTFQCFVSCNPQDQHTDAICSVNYNSSANMYVTGSKDGCIKLWDGVSNRCITTFEKAHDGAEVCSAIFSKNSKYILSSGKDSVAKLWEISTGRTLVRYTGAGLSGRQVHRTQAVFNHTEDYVLLPDERTISLCCWDSRTAERRNLLSLGHNNIVRCIVHSPTNPGFMTCSDDFRARFWYRRSTTD
B2: BARD1 (554-777) (domain or fragment, human, UniProt Q99728 554-777, looked up)
chain: ASHCSVMNTGQRRDGPLVLIGSGLSSEQQKMLSELAVILKAKKYTEFDSTVTHVVVPGDAVQSTLKCMLGILNGCWILKFEWVKACLRRKVCEQEEKYEIPEGPRRSRLNREQLLPKLFDGCYFYLWGTFKHHPKDNLIKLVTAGGGQILSRKPKPDSDVTQTINTVAYHARPDSDQRFCTQYIIYEDLCNYHPERVRQGKVWKAPSSWFIDCVMSFELLPLDS

One test deals with T1, BARD1 (423-777). Kind of test: pull-down.
In the test “GST-CstF-50 (92-431)” the target is B1. Kind of test: pull-down.

With B1, the binding result in the test with BARD1 (423-777) is “binds”.

Turning to B2, in the test with GST-CstF-50 (92-431), the binding result is given as “binds”.
